Experimental data reported in US20220144922A1 (Adimab, published 2022).
Positions count from the first letter of the chain named.

B1: ADI-15630 (antibody, V domains shown)
VH: QVQLVQSGGGLVKPGGSLRLSCAASGFIFSDYYMVWIRQAPGKGLEWVSYISSSSRYINYADSVKGRFTISRDNAKNSLFLQMNTVRAEDTAVYYCAQGWYSDFWSGPIRIWGQGTLVTVSS
VL: DIQLTQSPSSLSASVGDRVTITCQASQDISNSLNWFQQKPGKAPKLLIFDAYNLETGVPSRFSGSGSGTDFTLTISSLQPEDIATYYCQQNDNLVLTFGGGTKLEIK
B2: ADI-15570 (antibody, V domains shown)
VH: QVQLVESGGGVVQPGKSLRLSCAASGFTFSSYPMHWVRQAPGAGLEWMAVISYDGANKYYEDSLKGRFTISRDNSKDTLFLQMNNLRPEDTAVYYCARGRTSHINTPETKWGQGTLVTVSS
VL: EIVLTQSPTLVSASTGDTVTISCRMSQGINGYLAWFQKKPGKAPDLLIYGASTLQDGVPSRFSGSGSGTDFTLTISRLQSEDLATYYCQQYYSLPWTFGQGTKVDIK
B3: ADI-15636 (antibody, V domains shown)
VH: EVQLVESGAEVKKPGSSVKVSCKASADTFSSYAISWVRQAPGQGLEWMGGILPILGTANSAQKFRGRVTFTADESTTTAYMELSSLRSEDTAVYYCARLAGPRWPGYGMDVWGQGTLVTVSS
VL: DIQLTQSPSFLSASVGDRVTITCRASQGISSYLAWYQQKPGKAPKLLIYAASTLQSGVPSRFSGSGSGTEFTLTISSLQPEDFATYYCQQLNSFPLTFGGGTKVEIK
B4: ADI-15572 (antibody, V domains shown)
VH: QVQLVQSGAEAKKPGASVKVSCKASGYTFTSYYLHWVRQAPGQGPEWMGIINPGGGSTELSQKFQGRVTLTRDTSTSTVYMEVTSLTSEDTAVYYCARARIQLWAPNYYGMDVWGQGTTVTVSS
VL: B3 VL with Q27H, S30T, K42N, G68E, E70Q, S77G, S93R, F94Y, G100Q
B5: ADI-15555 (antibody, V domains shown)
VH: EVQLVESGGALVKPGGSLRLSCVGTGLTFTTAYMSWARQAPGKGLEWVGRIKSKSDGGTTDYPTPVKGRFTISRDESKNTLYLQMNSLKIEDTAVYYCTTDRGITARPIFDSWGQGTLVTVSS
VL: QSVLTQPPSVSGALGRRVTISCTGSSSNIGAGYDVHWYRQLPGTAPKLLIYGNTKRPSGVPDRFSGSKYATSASLAITGLQAEDDADYYCQSYDGGLSGYVFGTGTKLTVL
B6: ADI-15661 (antibody, V domains shown)
VH: EVQLVESGGGVVQPGRSLRLSCEASGFNFHNYDIQWVRQAPGKGLEWVALVLFDGSKKYYPHSVKGRFAISRDNSKKTLFLQMNSLRPEDTAVYYCARAPVTGASYYLDYWGQGTLVTVSS
VL: SYVLTQPPSVSVAPGQTARITCGANNIGNKGVHWYQQKPGQAPVLVVYDDDDQPSGIPERFSGSNSGNTATLTISRVEAGDEADYYCQVWDSTSDHLVFGGGTQLTVL
B7: ADI-15613 (antibody, V domains shown)
VH: EVQLVESGAEVKKPGSSVKVSCKVSGGTFSTYGISWIQQAPGQGLEWVGGIIPMFGTANYAQRFQGRVTLTADEGTNTAYMELNNLRSEDTAMYYCARDRGNNGRYYAMDVWGQGTTVTVSS
VL: DIVLTQTPATLSLSPGERATLSCRASQSVTTYLAWYQQKPGQAPRLLIYDTSNRATGIPARFSGSGSGTDFTLTISSLEPEDFAVYYCQQRNNWPPTFGQGTRLEIK
B8: ADI-15579 (antibody, V domains shown)
VH: EVQLVESGGGLVQPGRSLRLSCAAFGFTFDDYAMHWVRQAPGKGLEWVSGISWNSGFIGYADSVKGRFTISRDNAKNSLSLQMNSLRTEDTALYYCAKTDGAVAVDGPFDYWGQGTLVTVSS
VL: EIVLTQSPSSLSASVGDRVTITCRASQSISGYLSWYQQKPGKAPKLLIHSTSSLQSGVPSRFSGSGSGTDFTLTITSLQPEDFATYYCQQSYIAPPTFGQGTKVEIK
B9: ADI-15590 (antibody, V domains shown)
VH: EVQLLESGGLVVQPGGSLRLSCAASGFIFDDYTMHWVRQAPGKGLEWISLISWDSLDTYYAGSVQGRFTISRDNSRNSLYLRMNSLRPEDTALYYCAKTKYRGTYYYFDSWGQGTLVTVSS
VL: DIRVTQSPSSLSASVGDRVTITCQASQDISNYLNWYQQKPGKAPKLLIYDASNLETGVPSRFSGRGSGTDFTFTISSLQPEDIATYYCQQYDNLPPVTFGPGTKVEIK
B10: ADI-15581 (antibody, V domains shown)
VH: QVQLVQSGAEVKKPGSSMKVSCQASGGPFSTYTISWVRQAPGQGLEWMGGIIPVFGTPNYAQKFHGRVTITADQSTSTAYMELSSLRSEDTAVYYCAGAPYPMDVWGQGTTVTVSS
VL: EIVLTQSPATLSLSPGERATLSCRASQSVASSLAWYQQKPGQAPRLLIYDASNRATGIPARFSGSGSGTDFTLTISSLEPEDFAVYYCQQRTNWQGLSFGGGTKVDIK
B11: ADI-15634 (antibody, V domains shown)
VH: QVQLVQSGAEVKKPGSSVKVSCKASGGTFSSYAISWVRQAPGQGLEWMGGIIPIFGTVNYAQKFQGRVTITADESTSTAYMELSSLRSEDTAVYYCARDRSVTPRYYGMDVWGQGTTVTVSS
VL: EIVMTQSPATLSLSPGERATLSCRASQSVSSYLAWYQQKPGQAPRLLIYDASNRATGIPARFSGSGSGTDFTLTISSLEPEDFAVYYCQHRSNWPPLTFGPGTKLEIK
B12: ADI-15664 (antibody, V domains shown)
VH: EVQLVESGAEVKKPGSSVKVSCKASGGTFSSYAISWVRQAPGQGLEWMGGTIPIFGTINYAQKFQGRLTINADASTSTAYMELSSLRSEDTAVYFCARDRTTAVRYYAMDVWGQGTTVTVSS
VL: B11 VL with M4L, A51T, G57D, S92A, P101G, L105V
B13: ADI-15589 (antibody, V domains shown)
VH: QVQLQQWGAGLLKPSETLSLTCAVYGGSFSGYYWGWIRQPPGKGLEWIGEVNHSGTSNYNPSLTSRVTISVDPSKKQLSLKLNSVTAADTAVYYCARAPWYTHAMDVWGQGTTVTVSS
VL: QSVLTQPASVSGSPGQSITISCTRTSSDVGAYSYVSWYQQHPGKAPKLMIYDVNNRPSGVSNRFSGSKSGNTASLTISGLQAEDEADYYCSSYTNSNTLGVFGGGTKLTVL
B14: ADI-15562 (antibody, V domains shown)
VH: QVQLVQSGAEVKKPGDSLKISCKNAGHTSRIYWIAWVRQMPAKGLEYMGIIFPGDSDTRYSPSFRGQVTISADRSIRTAYLQLSSLKASDTGIYYCATQGLEGAFDYWGQGTLVTVSS
VL: DIRLTQSPSSLSASVGDRVTITCQASQDISNQLNWYQQKPGTAPKLLIYDASFLQTGVPSRFSGSGSGTHFTFTITSLQPEDFATYFCQHYDSFPIFTFGPGTKLEIK

Legend:
[1] = target: RSV F protein of subtype A strain A2, on virus (respiratory syncytial virus subtype A …, UniProt P03420 26-574); test: cell-based or functional assay
[2] = target: RSV F protein of subtype B strain 18537, on virus (respiratory syncytial virus subtype B …, UniProt P13843 26-574); test: cell-based or functional assay

Binder | Neut IC50 (ug/ml) subtype A [1] | Neut IC50 (ug/ml) subtype B [2]
B1 | > 10 µg/mL | 6.64 µg/mL
B2 | 13.3 µg/mL | > 10 µg/mL
B3 | > 10 µg/mL | 6.44 µg/mL
B4 | 9.48 µg/mL | 6.25 µg/mL
B5 | 2.19 µg/mL | 2.45 µg/mL
B6 | 0.021 µg/mL | > 10 µg/mL
B7 | 0.862 µg/mL | 3.04 µg/mL
B8 | 8.02 µg/mL | > 10 µg/mL
B9 | > 10 µg/mL | > 10 µg/mL
B10 | 8.25 µg/mL | 6.12 µg/mL
B11 | > 10 µg/mL | > 10 µg/mL
B12 | > 10 µg/mL | > 10 µg/mL
B13 | 0.876 µg/mL | 18.5 µg/mL
B14 | 0.01 µg/mL | 
